From IntAct's records for PubMed 21362419

B1: Tyrosine-protein kinase JAK2 (Mus musculus), Q62120 (parent)
chain: MGMACLTMTEMEATSTSPVHQNGDIPGSANSVKQIEPVLQVYLYHSLGQAEGEYLKFPSGEYVAEEICVAASKACGITPVYHNMFALMSETERIWYPPNHVFHIDESTRHDILYRIRFYFPHWYCSGSSRTYRYGVSRGAEAPLLDDFVMSYLFAQWRHDFVHGWIKVPVTHETQEECLGMAVLDMMRIAKEKDQTPLAVYNSVSYKTFLPKCVRAKIQDYHILTRKRIRYRFRRFIQQFSQCKATARNLKLKYLINLETLQSAFYTEQFEVKESARGPSGEEIFATIIITGNGGIQWSRGKHKESETLTEQDVQLYCDFPDIIDVSIKQANQECSNESRIVTVHKQDGKVLEIELSSLKEALSFVSLIDGYYRLTADAHHYLCKEVAPPAVLENIHSNCHGPISMDFAISKLKKAGNQTGLYVLRCSPKDFNKYFLTFAVERENVIEYKHCLITKNENGEYNLSGTKRNFSNLKDLLNCYQMETVRSDSIIFQFTKCCPPKPKDKSNLLVFRTNGISDVQISPTLQRHNNVNQMVFHKIRNEDLIFNESLGQGTFTKIFKGVRREVGDYGQLHKTEVLLKVLDKAHRNYSESFFEAASMMSQLSHKHLVLNYGVCVCGEENILVQEFVKFGSLDTYLKKNKNSINILWKLGVAKQLAWAMHFLEEKSLIHGNVCAKNILLIREEDRRTGNPPFIKLSDPGISITVLPKDILQERIPWVPPECIENPKNLNLATDKWSFGTTLWEICSGGDKPLSALDSQRKLQFYEDKHQLPAPKWTELANLINNCMDYEPDFRPAFRAVIRDLNSLFTPDYELLTENDMLPNMRIGALGFSGAFEDRDPTQFEERHLKFLQQLGKGNFGSVEMCRYDPLQDNTGEVVAVKKLQHSTEEHLRDFEREIEILKSLQHDNIVKYKGVCYSAGRRNLRLIMEYLPYGSLRDYLQKHKERIDHKKLLQYTSQICKGMEYLGTKRYIHRDLATRNILVENENRVKIGDFGLTKVLPQDKEYYKVKEPGESPIFWYAPESLTESKFSVASDVWSFGVVLYELFTYIEKSKSPPVEFMRMIGNDKQGQMIVFHLIELLKSNGRLPRPEGCPDEIYVIMTECWNNNVSQRPSFRDLSLRVDQIRDSIAA
partner: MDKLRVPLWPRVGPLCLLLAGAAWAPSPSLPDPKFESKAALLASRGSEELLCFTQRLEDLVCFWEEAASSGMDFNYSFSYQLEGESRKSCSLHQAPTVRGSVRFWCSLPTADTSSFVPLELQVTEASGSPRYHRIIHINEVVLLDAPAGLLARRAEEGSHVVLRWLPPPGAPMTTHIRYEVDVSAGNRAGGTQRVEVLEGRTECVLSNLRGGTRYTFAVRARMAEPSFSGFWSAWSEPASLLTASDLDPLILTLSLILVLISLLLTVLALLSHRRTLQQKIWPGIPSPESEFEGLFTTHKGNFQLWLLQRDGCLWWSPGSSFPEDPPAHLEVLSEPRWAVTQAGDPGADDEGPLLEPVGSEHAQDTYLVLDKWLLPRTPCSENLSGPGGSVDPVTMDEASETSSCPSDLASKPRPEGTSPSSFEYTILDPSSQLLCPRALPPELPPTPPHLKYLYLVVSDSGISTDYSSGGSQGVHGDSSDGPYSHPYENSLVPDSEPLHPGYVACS

Variants of: B1
Details: with epor_mouse Epor

effect of a mutation on the interaction | Variant
increasing interaction | T875N

Variants of: B1
Details: with epor_mouse Epor
Remark: another data set of the same source

effect of a mutation on the interaction | Variant
increasing interaction | V617F

Variants of: B1
Details: with epor_mouse Epor
Remark: another data set of the same source

effect of a mutation on the interaction | Variant
increasing interaction | K539L
